Test results: patent publication US20240076386A1 (Pfizer, published 2024)

T1: soluble recombinant human E-selectin (R & D Systems, ADP1) (human, UniProt P16581 22-556)
T1 sequence (looked up): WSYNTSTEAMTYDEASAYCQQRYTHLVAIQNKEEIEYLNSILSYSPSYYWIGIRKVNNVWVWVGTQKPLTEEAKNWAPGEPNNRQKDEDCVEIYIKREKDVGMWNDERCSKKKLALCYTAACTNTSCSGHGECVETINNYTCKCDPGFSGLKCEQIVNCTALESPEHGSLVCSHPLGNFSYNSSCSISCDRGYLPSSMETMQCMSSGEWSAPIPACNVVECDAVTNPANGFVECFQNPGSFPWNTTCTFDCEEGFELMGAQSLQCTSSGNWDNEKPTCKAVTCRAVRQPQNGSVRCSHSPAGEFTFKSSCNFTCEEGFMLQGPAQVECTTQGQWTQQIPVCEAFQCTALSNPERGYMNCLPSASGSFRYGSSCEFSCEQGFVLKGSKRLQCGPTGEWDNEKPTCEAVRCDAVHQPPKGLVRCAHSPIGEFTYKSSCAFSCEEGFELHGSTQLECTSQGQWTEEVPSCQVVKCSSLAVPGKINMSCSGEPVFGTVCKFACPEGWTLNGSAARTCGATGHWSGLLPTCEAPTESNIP

T2: human E-selectin extracellular domain with 10 His purification tail (human, UniProt P16581 22-556)
T2 construct: also called soluable human E-selectin extracellular domain; rhE-Selectin
T2 sequence: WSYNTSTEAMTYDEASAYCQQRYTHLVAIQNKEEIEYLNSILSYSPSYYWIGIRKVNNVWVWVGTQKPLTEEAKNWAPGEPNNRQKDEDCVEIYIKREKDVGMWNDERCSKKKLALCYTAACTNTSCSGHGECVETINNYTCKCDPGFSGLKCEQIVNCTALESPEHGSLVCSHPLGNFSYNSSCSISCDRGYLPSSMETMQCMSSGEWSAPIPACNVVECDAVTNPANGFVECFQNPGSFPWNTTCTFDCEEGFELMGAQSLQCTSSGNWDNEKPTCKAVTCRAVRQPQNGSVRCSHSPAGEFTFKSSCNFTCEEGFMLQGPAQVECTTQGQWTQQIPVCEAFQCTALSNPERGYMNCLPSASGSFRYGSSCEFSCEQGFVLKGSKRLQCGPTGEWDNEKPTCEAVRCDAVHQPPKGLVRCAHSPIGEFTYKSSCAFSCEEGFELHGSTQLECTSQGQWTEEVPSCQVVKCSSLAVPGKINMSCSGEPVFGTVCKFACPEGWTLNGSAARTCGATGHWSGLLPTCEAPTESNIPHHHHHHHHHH

T3: human E-selectin, cell-surface expressed (human, UniProt P16581 22-610)
T3 construct: also called CHO-human E-selectin cells; human CHO-E
T3 sequence: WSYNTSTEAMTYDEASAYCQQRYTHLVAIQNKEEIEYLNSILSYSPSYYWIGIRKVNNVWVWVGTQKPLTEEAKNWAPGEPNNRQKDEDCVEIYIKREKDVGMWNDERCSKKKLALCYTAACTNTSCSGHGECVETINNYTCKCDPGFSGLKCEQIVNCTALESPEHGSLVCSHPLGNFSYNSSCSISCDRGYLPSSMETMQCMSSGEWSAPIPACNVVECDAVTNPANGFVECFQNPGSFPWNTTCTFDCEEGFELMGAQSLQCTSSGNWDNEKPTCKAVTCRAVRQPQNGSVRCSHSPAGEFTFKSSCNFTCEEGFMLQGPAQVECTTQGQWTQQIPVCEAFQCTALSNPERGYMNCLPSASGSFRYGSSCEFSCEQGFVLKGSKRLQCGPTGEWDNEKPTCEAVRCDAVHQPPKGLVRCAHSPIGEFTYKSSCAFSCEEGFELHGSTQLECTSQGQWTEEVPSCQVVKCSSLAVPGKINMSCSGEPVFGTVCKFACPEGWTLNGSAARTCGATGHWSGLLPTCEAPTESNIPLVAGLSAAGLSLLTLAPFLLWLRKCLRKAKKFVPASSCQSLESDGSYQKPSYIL


What was measured:
[1] = molecular target: T1, soluble recombinant human E-selectin (R …); test: cell-based or functional assay
[2] = molecular target: T2, human E-selectin extracellular domain …; test: AlphaLISA competition vs sialyl Lewis A-PAA-biotin
Protocol: The neutralization ability of anti-E-selectin antibodies was measured in an AlphaLISA homogenous competition assay. […] This was incubated at room temperature for 15 minutes, followed by addition of 1.4 μL of human, mouse or cynomolgus monkey E-selectin added to a final concentration of 7 nM. This was again incubated at room temperature for 15 minutes. To this, 1.4 μL AlphaLISA beads was added (Ni-donor/SA-acceptor) for a final assay concentration of 10 μg/mL. This was incubated in the dark at room temperate for at least 10 hours. The plates were then read using the AlphaLISA protocol (Envision).

[3] = molecular target: T3, human E-selectin, cell-surface expressed; test: competition ELISA on CHO cells vs sialyl Lewis A-PAA-biotin/SA-HRP
Protocol: The ability of anti-E-selectin antibodies to neutralize ligand binding was assessed in a static neutralization assay using a competition enzyme-linked immunosorbent assay (ELISA) to evaluate the neutralization of the sialyl Lewis antigen to Chinese hamster ovary cells (CHO) engineered to express E-selectin.
Briefly, CHO cells expressing human E-selectin were grown in culture medium (MEM (Minimum Essential Medium) Alpha Medium, supplemented with 10% dialyzed fetal bovine serum, 100 nM methotrexate and 100 Units/mL penicillin and 100 μg/mL streptomycin) and were seeded at 12,500 cells per well into a 96 well tissue culture plate and incubated at 37° C., 5% CO₂ for 48 hours to form a confluent monolayer. Plates were subsequently washed twice with 200 μL of calcium magnesium free phosphate buffered saline (PBS). […] Plates were then washed twice with 200 μL of calcium magnesium free PBS. Following the incubation, the cells were washed twice with 200 μL of wash buffer containing 2 mM of calcium chloride (50 mM TRIS [trisaminomethane], 150 mM sodium chloride; 0.05% polysorbate 20, pH 7.4; 2 mM of calcium chloride). Signal was developed by adding 100 μL of 1-Step Ultra TMB substrate (Thermo Scientific, 34028) and incubating for 30 minutes at room temperature. Reactions were stopped using 2 M of sulfuric acid and absorbance read at 450 nm (Spectramax M5e). Data were analyzed and graphed using GraphPad Prism software (Version 8.0.2).

Row | Binder | neutralization of HL-60 cell binding under physiological flow to soluble human E-selectin protein IC50 (nM) [1] [nM] | EC50 [2] [nM] | IC50 [3] [nM]
1 | anti-E-selectin antibody 0158 chimera (antibody, human IgG1, kappa, V domains shown, rat VH/VL on effector-null human IgG1 and human kappa) VH: QVQLKESGPGLVQPSETLSLTCTVSGFSISTYNVHWLRQPPGKGLEWMGMMWSGGSPDYNSALKSRLSISRDTSKNQVFLKMNSLQSEDTTTYYCARWGGGFDYWGQGVMVTVSS VL: DIVLTQSPTTLSVTPGETVSLSCRASHSIGTNLHWYQQKTNESPRLLIKFTSQSISGIPSRFSASGSGTDFTLNINNVEFDDVSSYFCQQTQSWPLTFGSGTKLEIKR | 17.9 | < 1 | 2.87
2 | anti-E-selectin antibody 0159 chimera (antibody, human IgG1, kappa, V domains shown, rat VH/VL on effector-null human IgG1 and human kappa) VH: EVQLQQSGAELGKPGTSVKLSCKVSGYNIRSTYMHWVSQRPGKGLEWIGRIDPANGNTIYAEKFKRKATLTADTSSNTAYMQLSQLKSDDRAIYFCAMEVRVSFEYWGQGVMVTVSS VL: DIQMTQSPSFLSASVGDRVTINCKASQNINKYLDWYQQKLGEGPKLLIYYTNNLHTGIPSRFSGSGSGTDFTLTISSLQPEDVATYFCLQHDSGYTFGAGTKLELKR | 21 | < 1 | 3.24
3 | anti-E-selectin antibody 0170 chimera (antibody, human IgG1, kappa, V domains shown, rat VH/VL on effector-null human IgG1 and human kappa) VH: EVQLQQSGAELGKPGTSVKLSCKVSGYSIRSTYMHWVNQRPGKGLEWVGRIDPANGNTIYAERFKNKATLTADTSSNTAYMQLSQLKSDDTAIYFCAVEILGIFDYWGQGVMVTVSS VL: DIQMTQSPSFLSASVGDRVTINCKASQNIDKYLDWYQQKLGEAPKLLMYNTNSLHTGIPSRFSGSGSGTDFTLTISSLQPEDVATYFCLQHNSGYTFGAGTKLELKR | 74.2 | < 1 | 2.3
4 | anti-E-selectin antibody 0180 chimera (antibody, human IgG1, kappa, V domains shown, rat VH/VL on effector-null human IgG1 and human kappa) VH: EVQLQQSGAELGKPGTSVKLSCKVSGYKIRSSYMHWVNQRPGKGLEWIGRIDPANGNTIYGDKFKSKATLTSDTSSNTAYIQLSQLKSDDTAIYFCAIDIGTTFDYWGQGVMVTVSS VL: DIQMTQSPSFLSASVGDRVTINCKASQHINRYLNWYQQKLGEAPKLLIYDANNLQTGIPSRFSGSGSGTDFTLTISSLQPEDVATYFCLQHNSWPNTFGAGTKLELKR | 225 | < 1 | 3.83
5 | anti-E-selectin antibody 0164 chimera (antibody, human IgG1, kappa, V domains shown, rat VH/VL on effector-null human IgG1 and human kappa) VH: EVQLQQSGAEFGKPGTSVKLSCKVSGYNIRSSYMHWVNQRPGKGLEWIGRIDPANGNTIYAEKFKIKAILTADSSSNTAYMQLSQLKSDDTAIYFCAMDLYSTSEYWGQGVMVTVSS VL: DIQMTQSPSFLSASVGDRVTINCKTSQNINRYLNWYQQKLGEAPKLLIYNANSLQTGIPSRFSASGSGTDFTLTINSLQPEDVATYFCLQDNSWPLTFGSGTKLEIKR | 1.7 | < 1 | 2.77
6 | anti-E-selectin antibody 0039 chimera (antibody, human IgG1, kappa, V domains shown, rat VH/VL on effector-null human IgG1 and human kappa) VH: QVQLKETGPGLVQPTQTLSITCTVSGFSLTGYYMQWVRQTPGKGLEWMGFIRSSGSTEYNSEFKSRLSISRDTSKNQVFLKMNSLKTEDTGVYYCARCPYKYSSFVYVGVMDAWGQGAPVTVSS VL: EIVMTQSPTSMSTSIGERVTLNCKASQTVGINVDWYQQTPGQPPKLLIYGASNRHTGVPDRFTGSGFGRDFTLTISNVEAEDLAVYCCLQYGSIPHTFGPGTKLELKR | 265 | < 1 | 3.76
